Source: patent US11407819B2, “Compositions and use of a fibrinogen binding motif present in EFB and COA for therapeutics and vaccines against Staphylococcus aureus” (priority 2013, dated 2022)
“Also recorded” adds a separate entry of the source.

Tests used:
rEfb-N binding to Fg = molecular target: T1, rEfb-N binding to Fg (Homo sapiens, UniProt P02671+P02675+P02679); experiment: Competition ELISA, peptide inhibition of rEfb-N (Efb 30-104) binding to Fg; conditions: increasing concentration of peptides; 2 nM GST fusion protein
T1 construct: full-length human Fibrinogen (diluted in PBS, Enzyme research); purchased Enzyme research; host or cells: Efb probe made in E. coli
T1 sequence (P02671 20-629 limits assumed): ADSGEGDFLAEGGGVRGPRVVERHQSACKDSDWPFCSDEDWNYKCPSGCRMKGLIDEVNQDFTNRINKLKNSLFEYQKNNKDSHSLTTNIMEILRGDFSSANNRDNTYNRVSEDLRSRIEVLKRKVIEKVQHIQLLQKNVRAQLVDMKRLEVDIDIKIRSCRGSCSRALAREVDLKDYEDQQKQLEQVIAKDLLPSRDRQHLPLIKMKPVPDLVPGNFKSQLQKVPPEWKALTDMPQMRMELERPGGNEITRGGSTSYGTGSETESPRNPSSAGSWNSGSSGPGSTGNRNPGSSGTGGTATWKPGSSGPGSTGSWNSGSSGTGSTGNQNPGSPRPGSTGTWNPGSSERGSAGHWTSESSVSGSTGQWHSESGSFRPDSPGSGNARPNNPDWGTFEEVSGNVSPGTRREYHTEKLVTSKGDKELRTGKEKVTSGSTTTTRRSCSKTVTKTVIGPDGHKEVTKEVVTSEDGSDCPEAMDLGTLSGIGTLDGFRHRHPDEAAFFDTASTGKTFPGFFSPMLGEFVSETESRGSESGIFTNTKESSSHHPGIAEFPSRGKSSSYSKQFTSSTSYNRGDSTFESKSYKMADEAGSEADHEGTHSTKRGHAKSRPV
T1 sequence (P02675 31-491): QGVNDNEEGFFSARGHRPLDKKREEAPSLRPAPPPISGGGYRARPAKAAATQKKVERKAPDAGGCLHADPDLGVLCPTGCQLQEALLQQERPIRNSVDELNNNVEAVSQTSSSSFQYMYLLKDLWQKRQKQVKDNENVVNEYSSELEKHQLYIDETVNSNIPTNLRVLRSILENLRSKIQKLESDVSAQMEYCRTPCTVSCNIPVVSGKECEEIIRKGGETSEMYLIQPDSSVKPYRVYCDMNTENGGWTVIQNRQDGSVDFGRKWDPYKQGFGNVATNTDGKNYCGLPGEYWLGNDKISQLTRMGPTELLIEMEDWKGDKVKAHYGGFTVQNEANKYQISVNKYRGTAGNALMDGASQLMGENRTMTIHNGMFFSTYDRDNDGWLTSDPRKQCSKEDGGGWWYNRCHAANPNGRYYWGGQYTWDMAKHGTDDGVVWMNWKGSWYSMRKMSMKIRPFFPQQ
T1 sequence (P02679 27-453): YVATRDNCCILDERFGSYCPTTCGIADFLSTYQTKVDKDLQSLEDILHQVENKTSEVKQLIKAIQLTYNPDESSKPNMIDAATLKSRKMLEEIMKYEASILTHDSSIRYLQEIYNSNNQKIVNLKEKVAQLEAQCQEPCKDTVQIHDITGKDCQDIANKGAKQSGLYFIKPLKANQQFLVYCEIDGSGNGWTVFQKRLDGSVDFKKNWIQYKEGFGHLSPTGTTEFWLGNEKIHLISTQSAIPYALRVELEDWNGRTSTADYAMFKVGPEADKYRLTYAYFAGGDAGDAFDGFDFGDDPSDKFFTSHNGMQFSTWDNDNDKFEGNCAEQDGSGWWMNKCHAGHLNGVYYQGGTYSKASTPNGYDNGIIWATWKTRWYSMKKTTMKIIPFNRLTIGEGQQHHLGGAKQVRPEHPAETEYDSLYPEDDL
Description: Coa-F contains an Efb like fibrinogen binding motif. FIG. 11A is an image of a ClustalW alignment of amino acid sequence from Efb-O (Efb 68-98) and Coa from Newman strain (col-Newman). Sequence similarity was identified at Coa 474-505. Bold letters denote conserved residues and underlined letters represent similar residues. FIGS. 11B and 11C show a comparison of amino acid sequence of Efb-O with Coa 474-505 (FIG. 11B) and Coa 506-532 (FIG. 11C). Large letters in Efb-O indicate the residues important for Fg binding. The red letters show the identical residues and the yellow letters indicate the similar residues. […] Increasing concentration of Coa peptides was incubated with 2 nM GST fusion proteins in Fg-coated microtiter wells. Closed square, sCoa-O; closed circle, sCoa-RI; closed triangle, sEfb-O.
A peptide was synthesized that corresponds to the Coa-O sequence (sCoa-O) and determined its Fg binding activity in a competition ELISA. Microtiter wells were coated with Fg and binding of the recombinant N-terminal segment of Efb (rEfb-N), that harbors the two Fg binding sites, was quantitated in the presence of increasing concentration of different synthetic peptides.
In the case of peptide inhibition assay, various concentration of Efb or Coa peptides were mixed with a fixed concentration of Coa-GST or Efb-GST fusion proteins (5-10 nM) in TBS and the bound GST fusion proteins were detected through incubation with HRP-conjugated rabbit anti-GST polyclonal antibodies (5000× dilution). All proteins were diluted in TBS containing 1% BSA and 0.05% TWEEN® 20 and the ELISA assays were carried out at room temperature.

THP-1 cells = experiment: THP-1 cell adherence to immobilized Fg; type: cell-based
Description: Cell adherence assay using cell lines—A monocytic cell line THP-1 cell stably expressing αMβ2 was maintained in RPMI1640 supplemented with 10% fetal bovine serum, […] L-glutamine, 100 units/ml penicillin and 100 μg/ml streptomycin. Prior to use, cells were harvested by centrifuge, washed and suspended in RPMI 1640/1% human serum albumin. For cell adherence assays, 48-well plates were coated with 200 μl of Fibrinogen (10 μg/ml) overnight at 4° C. followed by 1 hour at 37° C. before blocking with 1% Polyvinylpyrrolidone (PVP 3600 kDa) for 45 minutes at 37° C. Subsequently, the cells were seeded 2×10^5/well in the presence or absence of Coa or Efb recombinant proteins or peptides and incubated at 37° C. for 25 minutes. Non-adherent cells were removed by washing gently three times with PBS/1% BSA. Adherent cells were quantitated with CyQuant kit according to the manufacturer's manual.

[1] = tested on: Coa-F, Coa-R0, Efb-N, Efb-O, Efb-A binding to Fg; experiment: Inhibition by FBE5 scFv-Fc of Coa and Efb fragment binding to immobilized human Fg; set-up: species or system Staphylococcus aureus; conditions: scFv-Fc 0.5, 5, 50 μg/ml; for inhibition of binding to Fg of all proteins tested: Coa-F, Coa-R0, Efb-N, Efb-O 10 nM, Efb-A 750 nM
Description: To assess the inhibitory activity of anti-Coa scFv-Fc antibodies, 0.5 μg/well of human Fg was immobilized at 4° C. overnight in 50 mM Carbonate Buffer, pH 9.6. Indicated amounts (50, 5, 0.5 μg/ml) of scFv-Fcs prepared in 2% BSA+1×TBS+0.05% TWEEN® 20 were pre-incubated for 1 hour with a constant concentration of Coa or Efb fragments also prepared in 2% BSA+1×TBS+0.05% TWEEN® 20 at room temperature, 250 rpm shaking. Specifically, Coa-F, Coa-R0, Efb-N and Efb-O were at a fixed concentration of 10 nM; whereas Efb-A was at 750 nM. Fg-binding activity of each protein alone was also checked (no mAb control—0 μg/ml). The Fg-coated plate was blocked with 2% BSA-TBST and washed with PBST. […] Residual bound Coa and Efb fragments were detected with HRP-conjugated (HorseRadish Peroxidase-conjugated) α-GST-tag antibody, except for Efb-N, where an HRP-conjugated α-HIS-tag was used (see FIG. 18). HRP-tagged antibodies were diluted in 2% BSA+1×TBS+0.05% TWEEN® 20 and used at 1:10000 dilution. […] HRP signal was developed using […]™ OPD tablets using manufacturer's guidelines. Binding of Coa and Efb fragments to Fg (no mAb control) was set to 100% and residual binding to Fg of Coa and Efb fragments in the presence of different concentrations of antibodies was calculated and represented.
To assess the inhibitory activity of anti-Coa scFv-Fc antibodies, 0.5 μg/well of human Fg was immobilized at 4° C. overnight in 50 mM Carbonate Buffer, pH 9.6. Indicated amounts (0, 0.5, 5, and 50 μg/ml) of scFv-Fcs were pre-incubated for 1 hour with a constant concentration of Coa or Efb fragments. Specifically, Coa-F, Coa-R0, Efb-N and Efb-O were at a fixed concentration of 10 nM; whereas Efb-A was at 750 nM. Fg-binding activity of each protein alone was also checked (no mAb control—0 μg/ml). The Fg-coated plate was blocked with 2% BSA-PBST and washed with PBST. The pre-incubated mixture of Coa/Efb and anti-Coa scFv-Fc was transferred on the Fg-coated plate. Residual bound Coa and Efb fragments were detected with HRP-conjugated (HorseRadish Peroxidase-conjugated) α-GST-tag antibody, except for Efb-N, where an HRP-conjugated α-HIS-tag was used. Binding of Coa and Efb fragments to Fg (no mAb control) was set to 100% and residual binding to Fg of Coa and Efb fragments in the presence of different concentrations of antibodies was calculated and represented.

Row | Molecule | inhibition of rEfb-N binding to Fg (rEfb-N binding to Fg) | inhibition of THP-1 adherence to immobilized Fg (THP-1 cells; M1/70 20 μg/ml, rEfb 0.2 μM, rCoa 0.5 μM, peptides 0.5 μM each) | reversal of inhibition of THP-1 adherence elicited by rEfb or rCoa (THP-1 cells; peptide 50 μM preincubated with rEfb (0.2 μM) or rCoa (0.2 μM)) | inhibition of CoaF, CoaRO and EfbA binding to Fg [1] | inhibition of EfbN and EfbO binding to Fg [1] | inhibition of binding to Fg of all proteins tested [1]
1 | sCoa-O: synthetic peptide corresponding to Coa-O, residues Coa 474-505 (KYVKYRDAGTGIREYNDGTFGYEARPRFNKPS) | potent inhibitor; also recorded: effectively inhibited rEfb-N binding to Fg | did not inhibit THP-1 adherence | reverses the inhibitory activities | – | – | –
2 | FBE5-A12: VH SEQ ID NO: 73, VL SEQ ID NO: 103 (antibody, V domains shown) VH: QVQLVESGGGVVQPGRSLRLSCAASGFTFSSYGMHWVRQAPGKGLEWVAVISYDGSNKYYADSVKGRFTISRDNSKNTLYLQMNSLRGEDTAVYYCAREGGWEPNGLDYWGQGTLVTVSS VL: QAVLTQPPSASGTPGQRVTISCSGSDFNVGTNYVNWYQQLPGSAPKLLIYRNNQRPSGVPDRFSGSKSGTSATLGITGLQTGDEADYYCGTWDSSLSAEVFGGGTKLTVL | – | – | – | clear inhibition | less efficient | dose dependent inhibition of all proteins tested
3 | FBE5-F9: VH SEQ ID NO: 80, VL SEQ ID NO: 110 (antibody, V domains shown) VH: QMQLVQSGGGVVQPGRSLRLSCAASGFTFSSYGMHWVRQAPGKGLEWVAVISYDGSNKYYADSVKGRFTISRDNSKNTLYLQMNSLRAEDTAVYYCAKEGDGDYGGVLDYWGQGTLVTVSS VL: QSVLTQPPSVSAAPGQKVTISCSGSSSNIEKNYVSWYQQLPGTAPKLLIYDNNKRPSGIPDRFSGSKSGTSATLGITGLQTGDEADYYCGTWDSSLSAVVFGGGTKLTVL | – | – | – | clear inhibition | less efficient | dose dependent inhibition of all proteins tested
